Measured values taken from patent publication US20170275366A1 (Pfizer, published 2017).

Biological target: T1, recombinant protein consisting of the extracellular domain of the human EGFRVIII protein fused with a murine … (human; murine, UniProt P00533 25-645)
T1 construct: extracellular domain; It is described in the general methods as the reagent for detecting CAR on T cells by flow cytometry; also called EGFRvIII-mouse Fc detection reagent; not shown: murine IgG1 Fc fragment
Test: flow cytometry of CAR on primary T cells; by the general methods detected through binding of EGFRvIII ECD-mouse IgG1 Fc and a PE anti-mouse Fc antibody
Protocol: Transduction of T-cells with recombinant lentiviral vectors expression the CAR was carried out three days after T-cell purification/activation. Lentiviral vectors produced by Vectalys SA (Toulouse, France) by transfection of genomic and helper plasmids in HEK-293 cells may be used. Transductions were carried out at a multiplicity of infection of 5. CAR detection at the surface of T-cells is performed using a recombinant protein consisting on the extracellular domain of the human […] protein fused together with a murine IgG1 Fc fragment (produced by LakePharma). Binding of this protein to the CAR molecule is detected with a PE-conjugated secondary antibody (Jackson lmmunoresearch) targeting the mouse Fc portion of the protein, and analyzed by flow cytometry.

| Binder | binding result |
| --- | --- |
| 139-V3 CAR (other, Chimeric antigen receptor on the surface of primary T cells (mRNA transfection); also called CARs 139-V3; 24) DIQMTQSPSSLSASVGDRVTITCRASQGIRNNLAWYQQKPGKAPKRLIYAASNLQSGVPSRFTGSGSGTEFTLIVSSLQPEDFATYYCLQHHSYPLTSGGGTKVEIKGGGGSGGGGSGGGGSEVQVLESGGGLVQPGGSLRLSCAASGFTFSSYAMSWVRQAPGKGLEWVSAISGSGGSTNYADSVKGRFTISRDNSKNTLYLQMNSLRAEDTAVYYCAGSSGWSEYWGQGTLVTVSSTTTPAPRPPTPAPTIASQPLSLRPEACRPAAGGAVHTRGLDFACDIYIWAPLAGTCGVLLLSLVITLYCKRGRKKLLYIFKQPFMRPVQTTQEEDGCSCRFPEEEEGGCELRVKFSRSADAPAYQQGQNQLYNELNLGRREEYDVLDKRRGRDPEMGGKPRRKNPQEGLYNELQKDKMAEAYSEIGMKGERRRGKGHDGLYQGLSTATKDTYDALHMQALPPR | binds |
| MR1-V3 CAR (other, Chimeric antigen receptor on the surface of primary T cells; It has the MR1 scFv (VH, (G4S)3 linker, VL), CD8 alpha hinge, CD8 alpha TM, 4-1BB and CD3 zeta; also called 26) QVQLQQSGGGLVKPGASLKLSCVTSGFTFRKFGMSWVRQTSDKRLEWVASISTGGYNTYYSDNVKGRFTISRENAKNTLYLQMSSLKSEDTALYYCTRGYSSTSYAMDYWGQGTTVTVGGGGSGGGGSGGGGSDIELTQSPASLSVATGEKVTIRCMTSTDIDDDMNWYQQKPGEPPKFLISEGNTLRPGVPSRFSSSGTGTDFVFTIENTLSEDVGDYYCLQSFNVPLTFGDGTKLEKALTTTPAPRPPTPAPTIASQPLSLRPEACRPAAGGAVHTRGLDFACDIYIWAPLAGTCGVLLLSLVITLYCKRGRKKLLYIFKQPFMRPVQTTQEEDGCSCRFPEEEEGGCELRVKFSRSADAPAYQQGQNQLYNELNLGRREEYDVLDKRRGRDPEMGGKPRRKNPQEGLYNELQKDKMAEAYSEIGMKGERRRGKGHDGLYQGLSTATKDTYDALHMQALPPR | binds |
| MR1-V5 CAR (other, Chimeric antigen receptor on the surface of primary T cells; It has the MR1 scFv, IgG1 hinge, CD8 alpha TM, 4-1BB and CD3 zeta; also called 27) QVQLQQSGGGLVKPGASLKLSCVTSGFTFRKFGMSWVRQTSDKRLEWVASISTGGYNTYYSDNVKGRFTISRENAKNTLYLQMSSLKSEDTALYYCTRGYSSTSYAMDYWGQGTTVTVGGGGSGGGGSGGGGSDIELTQSPASLSVATGEKVTIRCMTSTDIDDDMNWYQQKPGEPPKFLISEGNTLRPGVPSRFSSSGTGTDFVFTIENTLSEDVGDYYCLQSFNVPLTFGDGTKLEKALEPKSPDKTHTCPPCPAPPVAGPSVFLFPPKPKDTLMIARTPEVTCVVVDVSHEDPEVKFNWYVDGVEVHNAKTKPREEQYNSTYRVVSVLTVLHQDWLNGKEYKCKVSNKALPAPIEKTISKAKGQPREPQVYTLPPSRDELTKNQVSLTCLVKGFYPSDIAVEWESNGQPENNYKTTPPVLDSDGSFFLYSKLTVDKSRWQQGNVFSCSVMHEALHNHYTQKSLSLSPGKKDPKIYIWAPLAGTCGVLLLSLVITLYCKRGRKKLLYIFKQPFMRPVQTTQEEDGCSCRFPEEEEGGCELRVKFSRSADAPAYQQGQNQLYNELNLGRREEYDVLDKRRGRDPEMGGKPRRKNPQEGLYNELQKDKMAEAYSEIGMKGERRRGKGHDGLYQGLSTATKDTYDALHMQALPPR | binds |
| 139-V5 CAR (other, Chimeric antigen receptor on the surface of primary T cells; also called CARs 139-V5; 25) DIQMTQSPSSLSASVGDRVTITCRASQGIRNNLAWYQQKPGKAPKRLIYAASNLQSGVPSRFTGSGSGTEFTLIVSSLQPEDFATYYCLQHHSYPLTSGGGTKVEIKGGGGSGGGGSGGGGSEVQVLESGGGLVQPGGSLRLSCAASGFTFSSYAMSWVRQAPGKGLEWVSAISGSGGSTNYADSVKGRFTISRDNSKNTLYLQMNSLRAEDTAVYYCAGSSGWSEYWGQGTLVTVSSEPKSPDKTHTCPPCPAPPVAGPSVFLFPPKPKDTLMIARTPEVTCVVVDVSHEDPEVKFNWYVDGVEVHNAKTKPREEQYNSTYRVVSVLTVLHQDWLNGKEYKCKVSNKALPAPIEKTISKAKGQPREPQVYTLPPSRDELTKNQVSLTCLVKGFYPSDIAVEWESNGQPENNYKTTPPVLDSDGSFFLYSKLTVDKSRWQQGNVFSCSVMHEALHNHYTQKSLSLSPGKKDPKIYIWAPLAGTCGVLLLSLVITLYCKRGRKKLLYIFKQPFMRPVQTTQEEDGCSCRFPEEEEGGCELRVKFSRSADAPAYQQGQNQLYNELNLGRREEYDVLDKRRGRDPEMGGKPRRKNPQEGLYNELQKDKMAEAYSEIGMKGERRRGKGHDGLYQGLSTATKDTYDALHMQALPPR | binds |
